The target of the first data set is T1, YtrASa (Sulfolobus acidocaldarius) (UniProt Q4J7S4).
T1 sequence: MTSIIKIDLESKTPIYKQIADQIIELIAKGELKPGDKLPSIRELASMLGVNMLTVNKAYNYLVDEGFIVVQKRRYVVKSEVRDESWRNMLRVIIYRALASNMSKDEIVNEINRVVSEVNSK
The data set is described as follows: DNase I footprinting. The conditions noted are these: 20 mM Tris-HCl pH 8.0, 1 mM MgCl2, 0.1 mM DTT, 12.5% glycerol, 50 mM NaCl, 0.4 mM EDTA, 37 C; ~0.1 nM 32P-DNA, excess non-specific competitor DNA; 6% native ….
On to “TCGTCAACAACCTATATAAGCCATAACTTTAAATAAGGATATTGTTATATTTGTTATATGACAAATATGTTTTCATTACTCTACCCGCTAATCTCCATAG (double strand) [Saci_2078 target, 100 bp]”, for which the binding result is reported as “binds”.
The same measure, in the same setting: the same measure for “CTTACCTTTTATAGTAGGTAAATAAGGTTTTTATTCCCCTAAATCATATATTTGCTATATGACAAGTATAATAAAAATCGACCTAGAGTCCAAGACTCCCATC (double strand) [ytrASa (Saci_1851) target, 102 bp]”: “binds”.

A further data set has as its target T1, YtrASa (Sulfolobus acidocaldarius). The data set is described as follows: EMSA. The conditions noted are these: 20 mM Tris-HCl pH 8.0, 1 mM MgCl2, 0.1 mM DTT, 12.5% glycerol, 50 mM NaCl, 0.4 mM EDTA, 37 C; ~0.1 nM 32P-DNA, excess non-specific competitor DNA; 6% native ….
Turning to “AAAATGGGAGAGTAATCGGTTTTTATTGAGACTTCGCAATACGATATATATGGATACAAAAGTTGTAATTAGAAGAGATCAGTGGAAACCAGGATCGGCGATGGAAATAAAGCGAGGCGT (double strand) [Saci_1234 target]”, the binding result was “no binding”.
Still for that read-out and setting: with “GGGAAAGGATATTGGGGAAATATTAAAAATACTGGGTTGAAGTTTAAACTTGTGTTTAAACAACTAATAATTAAATATTTTGGGATAATATCTGTTGTAATCCTTGCAACAATAATCTC (double strand) [Saci_0421 target]” the entry was “no binding”.
Same read-out and setting: with “GTTTTGAGTACAACCTAACCCATTATACTAAATAAGGTTTATTTATTTTAGTAACTTTTAGAAATTATGCAAGATCTTTTTTGGGAAAGTGCAAATTGCCTTGAGGGAAAAGGTCTGCAA (double strand) [Saci_2168 target]” the entry was “no binding”.
For the substance Saci_2078 target, 100 bp, the Kd – broadly, the free concentration of one partner at which half of the binding sites on the other are occupied at equilibrium, for simple one-to-one binding – was 34 nM.
Same read-out and setting: with “TCGTCAACAACCTATATAAGCCATAACTTTAAATAAGGATATTGTTATATTTGTTATATGACAAATATGTTTTCATTACTCTACCCGCTAATCTCCATAG (double strand) [Saci_2078 target, 100 bp]” the figure was 34 nM.
Consider “TCCTGAAGGCCTAAAAGAGTACATTCTAGACCTTTCCGCATAAAACTTAGGTAGGGCTAGGCATAATGCAAAAGCCCTCAAACTTTTCATTAAAGAAGTGATT (double strand) [Saci_0677 target]”, for which the binding result is recorded as “no binding”.
For ytrASa (Saci_1851) target, 102 bp, the Kd amounted to 37 nM.
“AACTGCGGTGAATAAAGTAGGGTGTTTGATTTTTGCCAAAGAAGAGGGAGAATAGAGGAAGAAGAAAGGGCGACAAAGGACACGTTGGTAGCATACATTGTGACCA (double strand) [Saci_1554 target]”: the binding entry is “binds more weakly”.
Same read-out and setting: with “AGCAACACCAAAGGATTGAATTTCATTTCTATCCCTGTTTGACTTAAAGCAAGACTCTTGAATAAAAAATATAATTTAGAGGTTTACTAAAAACAAACCGTGAACGTAGGAAGA (double strand) [Saci_0871 target]” the entry was “no binding”.
As for “CTTACCTTTTATAGTAGGTAAATAAGGTTTTTATTCCCCTAAATCATATATTTGCTATATGACAAGTATAATAAAAATCGACCTAGAGTCCAAGACTCCCATC (double strand) [ytrASa (Saci_1851) target, 102 bp]”, the dissociation constant Kd came out at 37 nM and the binding result is listed as “binds”.

(Values after article PMC6746942.)
